In data set [1] the target is T1, 3-alpha-hydroxysteroid dehydrogenase (Rattus norvegicus) (UniProt P23457).
T1 sequence (whole entry): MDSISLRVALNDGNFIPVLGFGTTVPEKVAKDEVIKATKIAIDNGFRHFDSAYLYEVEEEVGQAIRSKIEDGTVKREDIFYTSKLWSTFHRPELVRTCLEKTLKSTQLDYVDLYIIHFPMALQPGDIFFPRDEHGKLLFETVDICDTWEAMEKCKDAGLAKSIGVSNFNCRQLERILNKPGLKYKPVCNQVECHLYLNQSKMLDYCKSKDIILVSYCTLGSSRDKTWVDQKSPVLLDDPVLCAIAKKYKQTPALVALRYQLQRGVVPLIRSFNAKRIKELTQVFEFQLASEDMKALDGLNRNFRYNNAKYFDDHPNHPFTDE
Briefly: Ratio of Vmax to Km for rat liver 3-alpha-HSD for formation of corresponding (S)-alcohol products.

The target in data set [2] is T1, 3-alpha-hydroxysteroid dehydrogenase (Rattus norvegicus). Put plainly: Ratio of Vmax to Km for rat liver 3-alpha-HSD for formation of corresponding (R)-alcohol products.
Substrate in data set [3]: CC(=O)c1ccccc1
Briefly: (§1) Activity of rat liver 3-alpha-HSD assessed as formation of corresponding (S)-alcohol products.

Substrate in data set [4]: CC(=O)c1ccc([N+](=O)[O-])cc1
The description is as §1.

Substrate in data set [5]: CC(=O)c1ccc(Br)cc1
Described as §1.

Substrate in data set [6]: COc1ccc(C(C)=O)cc1
Described as §1.

Substrate in data set [7]: CC(=O)c1ccc(N(C)C)cc1
The description is as §1.

Substrate in data set [8]: CC(=O)c1ccc(C)cc1
The data set is described as §1.

Substrate in data set [9]: CC(=O)c1ccc(C#N)cc1
Described as §1.

Substrate in data set [10]: CC(=O)c1ccc(N(C)C)cc1
Briefly: (§2) Activity of rat liver 3-alpha-HSD assessed as formation of corresponding (R)-alcohol products per mg of protein.

Substrate in data set [11]: CC(=O)c1ccc(C)cc1
The data set is described as §2.

Substrate in data set [12]: CC(=O)c1ccc(N(C)C)cc1
Briefly: (§3) Activity of rat liver 3-alpha-HSD assessed as formation of corresponding (R)-alcohol products.

Substrate in data set [13]: CC(=O)c1ccc(C)cc1
The data set is described as §3.

Substrate in data set [14]: CC(=O)c1ccccc1
Put plainly: (§4) Activity of rat liver 3-alpha-HSD assessed as formation of corresponding (S)-alcohol products per mg of protein.

Substrate in data set [15]: CC(=O)c1ccc([N+](=O)[O-])cc1
Described as §4.

Substrate in data set [16]: CC(=O)c1ccc(Br)cc1
Described as §4.

Substrate in data set [17]: COc1ccc(C(C)=O)cc1
Described as §4.

Substrate in data set [18]: CC(=O)c1ccc(N(C)C)cc1
Described as §4.

Substrate in data set [19]: CC(=O)c1ccc(C)cc1
The description is as §4.

Substrate in data set [20]: CC(=O)c1ccc(C#N)cc1
Described as §4.

Consider `CC(=O)c1ccccc1`, for which, in data set [1], the Ratio came out at 49 µL/min.
Same read-out and setting: with `CC(=O)c1ccc(Br)cc1` the figure was 30.6 µL/min; with `CC(=O)c1ccc(C#N)cc1`, 9440 µL/min.
Still for that read-out and setting: the figure for `COc1ccc(C(C)=O)cc1` is 0.97 µL/min.
`CC(=O)c1ccc(C)cc1`: the values for the Ratio in data set [2] and in data set [1] were 1.01 µL/min and 7.21 µL/min, respectively.
For `CC(=O)c1ccc(N(C)C)cc1`, the Ratio in data set [2] was 0.09 µL/min; in [1], 0.41 µL/min.
For the molecule `CC(=O)c1ccc([N+](=O)[O-])cc1`, the Ratio in data set [1] turned out to be 61700 µL/min.

B1: 3-alpha-hydroxysteroid dehydrogenase (Rattus norvegicus), P23457 (protein)
chain: MDSISLRVALNDGNFIPVLGFGTTVPEKVAKDEVIKATKIAIDNGFRHFDSAYLYEVEEEVGQAIRSKIEDGTVKREDIFYTSKLWSTFHRPELVRTCLEKTLKSTQLDYVDLYIIHFPMALQPGDIFFPRDEHGKLLFETVDICDTWEAMEKCKDAGLAKSIGVSNFNCRQLERILNKPGLKYKPVCNQVECHLYLNQSKMLDYCKSKDIILVSYCTLGSSRDKTWVDQKSPVLLDDPVLCAIAKKYKQTPALVALRYQLQRGVVPLIRSFNAKRIKELTQVFEFQLASEDMKALDGLNRNFRYNNAKYFDDHPNHPFTDE
One may read the Km as the concentration of substrate that gives half-maximal velocity. Broadly, the Vmax is the rate approached at saturating substrate. As to B1, the Km is 10.4 mM in [3]; 0.02 mM in data set [4]; 10.3 mM in [5]; 5.59 mM in data set [6]; 21.9 mM in data set [7]; 27.7 mM in data set [8]. The Km in [9] was 0.11 mM; in [12] it was 19.2 mM; in [13], 13.2 mM. Besides, the Vmax was 0.002 µmol/min in [10]; 0.013 µmol/min in data set [11]; 0.51 µmol/min in data set [14]; 1.13 µmol/min in data set [15]; 0.315 µmol/min in [16]; 0.005 µmol/min in data set [17]. Also, the values for the Vmax in data set [18], in data set [19] and in [20] were 0.009 µmol/min, 0.2 µmol/min and 1.08 µmol/min, respectively.

(Values after ChEMBL document CHEMBL1143972, “Electronic effects of para-substitution on acetophenones in the reaction of rat liver 3alpha-hydroxysteroid dehydrogenase” (Bioorg Med Chem, 2008).)
